Measured values taken from patent US20220402983A1 (Janssen / Centocor, published 2022).
*1 amine or outer side, *2 acyl side, *3 side chain or, on linkers, in order; H or OH if unused. Bridges are numbered along the chain shown (N, C = ends). [ ]: non-standard residue; d: D form. dPhe(3-NH2) = D-3-aminophenylalanine, O=C([C@@H](Cc1cccc(N[*:3])c1)N[*:1])[*:2]; Trp(7-Me) = Cc1cccc2c(C[C@H](N)C(=O)O)c[nH]c12; dPhe(4-NH2) = Nc1ccc(C[C@@H](N)C(=O)O)cc1; Phe(4-NH2) = Nc1ccc(C[C@H](N)C(=O)O)cc1; 2Nal = N[C@@H](Cc1ccc2ccccc2c1)C(=O)O; (N-benzyl)Asn = N-benzyl-asparagine; AEF = NCCOc1ccc(C[C@H](N)C(=O)O)cc1; αMeF = C[C@](N)(Cc1ccccc1)C(=O)O; 3Pal = N[C@@H](Cc1cccnc1)C(=O)O; Cit = NC(=O)NCCC[C@H](N)C(=O)O; αMeL = CC(C)C[C@](C)(N)C(=O)O; Pen = CC(C)(S)[C@H](N)C(=O)O; αMeK = C[C@](N)(CCCCN)C(=O)O; αMeC = C[C@](N)(CS)C(=O)O; Thp = NC1(C(=O)O)CCOCC1; Abu = CC[C@H](N)C(=O)O

T1: human IL-23R (interleukin-23 receptor) (human, UniProt Q5VWK5 24-629)
T1 sequence (looked up): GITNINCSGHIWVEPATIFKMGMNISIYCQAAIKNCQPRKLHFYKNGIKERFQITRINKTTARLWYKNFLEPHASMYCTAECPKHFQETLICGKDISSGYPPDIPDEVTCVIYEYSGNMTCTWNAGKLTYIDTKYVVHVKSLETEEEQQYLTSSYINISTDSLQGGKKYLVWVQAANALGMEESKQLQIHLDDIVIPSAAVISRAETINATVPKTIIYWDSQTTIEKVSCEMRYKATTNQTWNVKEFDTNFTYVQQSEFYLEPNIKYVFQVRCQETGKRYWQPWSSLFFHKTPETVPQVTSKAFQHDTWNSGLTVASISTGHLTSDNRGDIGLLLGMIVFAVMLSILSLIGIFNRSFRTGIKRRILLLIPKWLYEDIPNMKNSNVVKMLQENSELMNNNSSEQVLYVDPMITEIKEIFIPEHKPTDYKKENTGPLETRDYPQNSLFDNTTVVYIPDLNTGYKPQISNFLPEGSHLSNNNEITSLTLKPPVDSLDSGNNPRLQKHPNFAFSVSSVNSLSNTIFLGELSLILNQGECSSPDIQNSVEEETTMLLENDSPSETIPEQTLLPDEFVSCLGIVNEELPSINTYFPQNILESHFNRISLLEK

B1: Compound No. 120 (peptide)
peptide: CNTXQCFXKKNX
modifications: Ac-[Cys]-N-T-[W(7-Me)]-Q-[aMeCys]-Phe[4-(2-aminoethoxy)]-[2-Nal]-[a-MeLys]-[Lys(Ac)]-N-[THP]-NH2; cyclized: Cys-aMeCys disulfide bond
B2: Compound No. 115 (peptide)
peptide: Ac-[Pen]NT[Trp(7-Me)]K(Ac)[Pen][AEF][2Nal][αMeK]K(Ac)N[αMeF][dPhe(3-NH2)]-NH2
modifications: disulfide 1-6
SMILES: CC(=O)NCCCC[C@@H]1NC(=O)[C@H](Cc2c[nH]c3c(C)cccc23)NC(=O)[C@H]([C@@H](C)O)NC(=O)[C@H](CC(N)=O)NC(=O)[C@@H](NC(C)=O)C(C)(C)SSC(C)(C)[C@@H](C(=O)N[C@@H](Cc2ccc(OCCN)cc2)C(=O)N[C@@H](Cc2ccc3ccccc3c2)C(=O)N[C@@](C)(CCCCN)C(=O)N[C@@H](CCCCNC(C)=O)C(=O)N[C@@H](CC(N)=O)C(=O)N[C@@](C)(Cc2ccccc2)C(=O)N[C@H](Cc2cccc(N)c2)C(N)=O)NC1=O
B3: Compound No. 112 (peptide)
peptide: Ac-[Pen]NT[Trp(7-Me)]K(Ac)[Pen][AEF][2Nal][αMeK]K(Ac)N[Phe(4-NH2)]-NH2
modifications: disulfide 1-6
SMILES: CC(=O)NCCCC[C@@H]1NC(=O)[C@H](Cc2c[nH]c3c(C)cccc23)NC(=O)[C@H]([C@@H](C)O)NC(=O)[C@H](CC(N)=O)NC(=O)[C@@H](NC(C)=O)C(C)(C)SSC(C)(C)[C@@H](C(=O)N[C@@H](Cc2ccc(OCCN)cc2)C(=O)N[C@@H](Cc2ccc3ccccc3c2)C(=O)N[C@@](C)(CCCCN)C(=O)N[C@@H](CCCCNC(C)=O)C(=O)N[C@@H](CC(N)=O)C(=O)N[C@@H](Cc2ccc(N)cc2)C(N)=O)NC1=O
B4: Compound No. 114 (peptide)
peptide: Ac-[Pen]NT[Trp(7-Me)]K(Ac)[Pen][AEF][2Nal][αMeK]K(Ac)N[αMeF][dPhe(4-NH2)]-NH2
modifications: disulfide 1-6
SMILES: CC(=O)NCCCC[C@@H]1NC(=O)[C@H](Cc2c[nH]c3c(C)cccc23)NC(=O)[C@H]([C@@H](C)O)NC(=O)[C@H](CC(N)=O)NC(=O)[C@@H](NC(C)=O)C(C)(C)SSC(C)(C)[C@@H](C(=O)N[C@@H](Cc2ccc(OCCN)cc2)C(=O)N[C@@H](Cc2ccc3ccccc3c2)C(=O)N[C@@](C)(CCCCN)C(=O)N[C@@H](CCCCNC(C)=O)C(=O)N[C@@H](CC(N)=O)C(=O)N[C@@](C)(Cc2ccccc2)C(=O)N[C@H](Cc2ccc(N)cc2)C(N)=O)NC1=O
B5: Compound No. 122 (peptide)
peptide: Ac-CNTWK(Ac)[αMeC][AEF][2Nal][αMeK]K(Ac)N[αMeF]-NH2
modifications: disulfide 1-6
SMILES: CC(=O)NCCCC[C@@H]1NC(=O)[C@H](Cc2c[nH]c3ccccc23)NC(=O)[C@H]([C@@H](C)O)NC(=O)[C@H](CC(N)=O)NC(=O)[C@@H](NC(C)=O)CSSC[C@@](C)(C(=O)N[C@@H](Cc2ccc(OCCN)cc2)C(=O)N[C@@H](Cc2ccc3ccccc3c2)C(=O)N[C@@](C)(CCCCN)C(=O)N[C@@H](CCCCNC(C)=O)C(=O)N[C@@H](CC(N)=O)C(=O)N[C@@](C)(Cc2ccccc2)C(N)=O)NC1=O
B6: Compound No. 116 (peptide)
peptide: Ac-[Pen]NT[Trp(7-Me)]K(Ac)[Pen][AEF][2Nal][αMeK]K(Ac)N[αMeF][3Pal]-NH2
modifications: disulfide 1-6
SMILES: CC(=O)NCCCC[C@@H]1NC(=O)[C@H](Cc2c[nH]c3c(C)cccc23)NC(=O)[C@H]([C@@H](C)O)NC(=O)[C@H](CC(N)=O)NC(=O)[C@@H](NC(C)=O)C(C)(C)SSC(C)(C)[C@@H](C(=O)N[C@@H](Cc2ccc(OCCN)cc2)C(=O)N[C@@H](Cc2ccc3ccccc3c2)C(=O)N[C@@](C)(CCCCN)C(=O)N[C@@H](CCCCNC(C)=O)C(=O)N[C@@H](CC(N)=O)C(=O)N[C@@](C)(Cc2ccccc2)C(=O)N[C@@H](Cc2cccnc2)C(N)=O)NC1=O
B7: Compound No. 118 (peptide)
peptide: Ac-CNT[Trp(7-Me)]K(Ac)[αMeC][AEF][2Nal][αMeK]K(Ac)N[αMeF]-NH2
modifications: disulfide 1-6
SMILES: CC(=O)NCCCC[C@@H]1NC(=O)[C@H](Cc2c[nH]c3c(C)cccc23)NC(=O)[C@H]([C@@H](C)O)NC(=O)[C@H](CC(N)=O)NC(=O)[C@@H](NC(C)=O)CSSC[C@@](C)(C(=O)N[C@@H](Cc2ccc(OCCN)cc2)C(=O)N[C@@H](Cc2ccc3ccccc3c2)C(=O)N[C@@](C)(CCCCN)C(=O)N[C@@H](CCCCNC(C)=O)C(=O)N[C@@H](CC(N)=O)C(=O)N[C@@](C)(Cc2ccccc2)C(N)=O)NC1=O
B8: Compound No. 119 (peptide)
peptide: CNTXQCFXKKNF
modifications: Ac-[Cys]-N-T-[W(7-Me)]-Q-[aMeCys]-Phe[4-(2-aminoethoxy)]-[2-Nal]-[a-MeLys]-[Lys(Ac)]-N-[a-MePhe]-NH2; cyclized: Cys-aMeCys disulfide bond
B9: Compound No. 117 (peptide)
peptide: Ac-CNT[Trp(7-Me)]K(Ac)[αMeC][AEF][2Nal][αMeK]K(Ac)N[Thp]-NH2
modifications: disulfide 1-6
SMILES: CC(=O)NCCCC[C@@H]1NC(=O)[C@H](Cc2c[nH]c3c(C)cccc23)NC(=O)[C@H]([C@@H](C)O)NC(=O)[C@H](CC(N)=O)NC(=O)[C@@H](NC(C)=O)CSSC[C@@](C)(C(=O)N[C@@H](Cc2ccc(OCCN)cc2)C(=O)N[C@@H](Cc2ccc3ccccc3c2)C(=O)N[C@@](C)(CCCCN)C(=O)N[C@@H](CCCCNC(C)=O)C(=O)N[C@@H](CC(N)=O)C(=O)NC2(C(N)=O)CCOCC2)NC1=O
B10: Compound No. 108 (peptide)
peptide: Ac-[Pen]NT[Trp(7-Me)][Cit][Pen][AEF][2Nal][αMeL]K(Ac)N[Thp]-NH2
modifications: disulfide 1-6
SMILES: CC(=O)NCCCC[C@H](NC(=O)[C@](C)(CC(C)C)NC(=O)[C@H](Cc1ccc2ccccc2c1)NC(=O)[C@H](Cc1ccc(OCCN)cc1)NC(=O)[C@H]1NC(=O)[C@H](CCCNC(N)=O)NC(=O)[C@H](Cc2c[nH]c3c(C)cccc23)NC(=O)[C@H]([C@@H](C)O)NC(=O)[C@H](CC(N)=O)NC(=O)[C@@H](NC(C)=O)C(C)(C)SSC1(C)C)C(=O)N[C@@H](CC(N)=O)C(=O)NC1(C(N)=O)CCOCC1
B11: Compound No. 121 (peptide)
peptide: Ac-CNTWK(Ac)[αMeC][AEF][2Nal][αMeK]K(Ac)N[Thp]-NH2
modifications: disulfide 1-6
SMILES: CC(=O)NCCCC[C@@H]1NC(=O)[C@H](Cc2c[nH]c3ccccc23)NC(=O)[C@H]([C@@H](C)O)NC(=O)[C@H](CC(N)=O)NC(=O)[C@@H](NC(C)=O)CSSC[C@@](C)(C(=O)N[C@@H](Cc2ccc(OCCN)cc2)C(=O)N[C@@H](Cc2ccc3ccccc3c2)C(=O)N[C@@](C)(CCCCN)C(=O)N[C@@H](CCCCNC(C)=O)C(=O)N[C@@H](CC(N)=O)C(=O)NC2(C(N)=O)CCOCC2)NC1=O

What follows are binders tested against T1, human IL-23R (interleukin-23 receptor) (assay: cell-based or functional assay).

| Binder | PBMC pSTAT3 IC50 (nM) | pStat3 HTRF (nM), IC50, DB cells IL23R pSTAT3 cell assay |
| --- | --- | --- |
| B1 | 4.9 nM |  |
| B2 | 39 nM |  |
| B3 |  | 2.09 nM |
| B4 | 12 nM |  |
| B5 | 54 nM |  |
| B6 | 20 nM |  |
| B7 | 30 nM |  |
| Ac-[dR][Pen]QTWQ[Pen][AEF][2Nal][Thp]EN[(N-benzyl)Asn]-NH2 (disulfide 2-7) [Compound No. 110] | 700 nM |  |
| B8 | 5.3 nM |  |
| B9 | 7.1 nM |  |
| B10 | 5.1 nM |  |
| B11 | 41 nM |  |
| Ac-[dR][Abu]QTWQC[AEF][2Nal][Thp]EN[αMeF]-NH2 (thioether 2-7) [Compound No. 123] | 11 nM |  |
